Source: patent publication US5814466, “Method for assaying for a substance that affects an SH2-phosphoraylated ligand regulatory system” (Mount Sinai Hospital Corporation, dated 1998)

B1: TrpE-PLC-SH2[N+C] (other)
chain: MQTQKPTLELLTCEGAYRDNPTALFHQLCGDRPATLLLESADIDSKDDLKSLLLVDSALRITALGDTVTIQALSGNGEALLALLDNALPAGVESEQSPNCRVLRFPPVSPLLDEDARLCSLSVFDAFRLLQNLLNVPKEEREAMFFGGLFSYDLVAGFEDLPQLSAENNCPDFCFYLAETLMVIDHQKKSTRIQASLFAPNEEEKQRLTARLNELRQQLTEAAPPLPVVSVPHMRCECNQSDEEFGGVVRLLQKAIRAGEIFQVVPSRRFSLPCPSPLAAYYVLKKSNPSPYMFFMQDNDFTLFGASPESSLKYDATSRQIEIWFHGKLGAGRDGRHIAERLLTEYCIETGAPDGSFLVRESETFVGDYTLSFWRNGKVQHCRIHSRQDAGTPKFFLTDNLVFDSLYDLITHYQQVPLRCNEFEMRLSEPVPQTNAHESKEWYHASLTRAQAEHMLMRVPRDGAFLVRKRNEPNSYAISFRAEGKIKHCRVQQEGQTVMLGNSEFDSLVDLISYYEKHPLYRKMKLRYPI
B2: TrpE-PLC-SH2[N] (other)
chain: MQTQKPTLELLTCEGAYRDNPTALFHQLCGDRPATLLLESADIDSKDDLKSLLLVDSALRITALGDTVTIQALSGNGEALLALLDNALPAGVESEQSPNCRVLRFPPVSPLLDEDARLCSLSVFDAFRLLQNLLNVPKEEREAMFFGGLFSYDLVAGFEDLPQLSAENNCPDFCFYLAETLMVIDHQKKSTRIQASLFAPNEEEKQRLTARLNELRQQLTEAAPPLPVVSVPHMRCECNQSDEEFGGVVRLLQKAIRAGEIFQVVPSRRFSLPCPSPLAAYYVLKKSNPSPYMFFMQDNDFTLFGASPESSLKYDATSRQIEIWFHGKLGAGRDGRHIAERLLTEYCIETGAPDGSFLVRESETFVGDYTLSFWRNGKVQHCRIHSRQDAGTPKFFLTDNLVFDSLYDLITHYQQVPLRCNEFEMRLSEPV
B3: TrpE-GAP-SH2[N+3+C] (other)
chain: MQTQKPTLELLTCEGAYRDNPTALFHQLCGDRPATLLLESADIDSKDDLKSLLLVDSALRITALGDTVTIQALSGNGEALLALLDNALPAGVESEQSPNCRVLRFPPVSPLLDEDARLCSLSVFDAFRLLQNLLNVPKEEREAMFFGGLFSYDLVAGFEDLPQLSAENNCPDFCFYLAETLMVIDHQKKSTRIQASLFAPNEEEKQRLTARLNELRQQLTEAAPPLPVVSVPHMRCECNQSDEEFGGVVRLLQKAIRAGEIFQVVPSRRFSLPCPSPLAAYYVLKKSNPSPYMFFMQDNDFTLFGASPESSLKYDATSRQIEITNQWYHGKLDRTIAEERLRQAGKSGSYLIRESDRRPGSFVLSFLSQMNVVNHFRIIAMCGDYYIGGRRFSSLSDLIGYYSHVSCLLKGEKLLYPVAPPEPVEDRRRVRAILPYTKVPDTDEISFLKGDMFIVHNELEDGWMWVTNLRTDEQGLIVEDLVEEVGREEDPHEGKIWFHGKISKQEAYNLLMTVGQVCSFLVRPSDNTPGDYSLYFRTNENIQRFKICPTPNNQFMMGGRYYNSIGDIIDHYRKEQIVEGYYLKEPVPMQD

Columns and labels:
[1] = molecular target: T1, PDGF receptor from BB-PDGF-stimulated Rat-2 cells (activated PDGF-R) (rat (endogenous protein of Rat-2 cells), UniProt Q05030, phosphotyrosine (after stimulation with 75 nM BB-PDGF; sites not stated)); test: pull-down from lysate of PDGF-stimulated Rat-2 PLCγ1 cells; competitor: overexpressed cellular PLCγ1
Excerpt: Only a minor fraction of activated PDGF-R complexes with PLCγ1 in vivo. A Rat-2 cell line was genetically modified to overexpress PLCγ1 by tenfold as compared with the endogenous enzyme (Rat-2 PLCγ1). There is a proportionate increase in the amount of PDGF-R precipitated with antibodies to PLCγ1 (anti-PLCγ1) after PDGF stimulation of Rat-2 PLCγ1 cells, in comparison with parental Rat-2 cells. If bacterial PLCγ1 SH2 domains bound to the same site(s) on the PDGF-R as did cellular PLCγ1, then overexpression of PLCγ1 should block binding of bacterial PLCγ1 SH2 domains to activated PDGF-R in vitro. To investigate this Rat-2 cells (FIG. 10, lanes 1, 2, 5 and 6) or a Rat-2 cell line that overexpressed PLCγ1 by tenfold (R2-PLCγ; lanes 3, 4, 7, 8) were stimulated with PDGF (lanes 1, 3, and 5–8) or maintained without PDGF (lanes 2 and 4). Cell lysates were mixed with immobilized TrpE-PLC-SH2[N] (lanes 1 to 4), TrpE-PLC-SH2[N+C] (lanes 5 and 7), or TrpE-GAP-SH2 [N+3+C] ([…]). Samples were washed, separated by gel electrophoresis, and immunoblotted with anti-P.Tyr. Similar results were obtained by blotting with anti-PDGF-R.

[2] = molecular target: T1, PDGF receptor from BB-PDGF-stimulated …; test: pull-down of immobilised TrpE fusion from lysate of PDGF-stimulated Rat-2 cells, immunoblot
Description: The following procedure was used to investigate binding of TryE fusion proteins that contain GAP, Src, or Crk SH2 domains to PDGF-R in lysates of stimulated Rat-2 cells. Serum-starved Rat-2 cells were stimulated for 5 min at 37° C. with 75 nM BB-PDGF, lysed, and mixed with the indicated immobilized TrpE bacterial fusion proteins. Complexes were washed, resolved on 7.5% SDS-polyacrylamide gels and analyzed by immunoblotting with anti-P.Tyr (8 hour exposure) or with anti-PDGF-R (18 hour exposure).
Because GAP also associates with the PDGF-R, experiments were carried out using bacterial GAP SH2 sequences (see FIG. 7). The GAP SH2[N] domain bound the PDGF-R in a lysate of PDGF-stimulated cells (FIG. 9), but not in unstimulated cells.

Binder | PDGF-R associated, relative to parental PDGF-stimulated Rat-2 cells [1] | fold more efficient binding than expected from the individual SH2 domains [2] [fold]
B1 | 0.33 fraction of the amount from parental Rat-2 cells | 
B2 | 0.33 fraction of the amount from parental Rat-2 cells | 
B3 |  | 3
